# Source: the supplement of paper PMC10567573
# B1: ATE1 (parent)
# chain: YGSFHQQYWLDGKIIAVGVIDILP
# Variants of: B1
# Assay: protein stability index of a GFP-peptide fusion (GPS, HEK-293T) (PSI 1-6); higher = more stable
# Conditions: c terminus: a fixed tail appended
# 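Note: lentivirally expressed fusions sorted by FACS into six bins by GFP to DsRed ratio, PSI derived from sequencing read proportions per bin multiplied by bin number.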
row,Variant,protein stability index
1,I15F,2.83
2,V19D,3.87
3,V19R,2.92
4,V19M,2.91
5,V19W,2.06
6,V19T,2.49
7,V19A,2.67
8,V19E,1.71
9,V19P,3.09
10,V19F,3.06
11,V19I,2.64
12,V19K,1.77
13,V19S,2.97
14,V19C,2.56
15,V19L,2.41
16,V19Y,2.91
17,V19Q,2.97
18,Q6D,2.55
19,Q6I,3.08
20,Q6S,2.86
21,Q6N,3.97
22,Q6R,3.54
23,Q6G,2.41
24,Q6H,2.7

row,Variant,protein stability index
1,Q6W,1.19
2,Q6F,2.94
3,Q6A,3.19
4,Q6T,3.63
5,Q6K,3.09
6,Q6Y,2.43
7,I22M,3.15
8,I22Y,2.23
9,I22H,2.9
10,I22K,1.43
11,I22R,2.18
12,I22E,3.75
13,I22P,3.32
14,I22Q,2.42
15,I22D,2.81
16,I22T,1.74
17,I22V,2.14
18,I22S,3.81
19,I22A,3.85
20,I22W,2.77
21,I22F,2.93
22,L10I,3.3
23,L10Q,3.96
24,L10S,3.74

row,Variant,protein stability index
1,L10R,2.32
2,L10W,2.66
3,L10Y,1.97
4,L10D,2.64
5,L10V,3.17
6,L10T,1.74
7,L10C,2.9
8,L10M,2.16
9,L10N,3.14
10,L10H,2.42
11,L10K,3.17
12,L10E,2.75
13,L10P,3.12
14,G2H,2.47
15,G2R,3.47
16,G2P,3.53
17,G2K,2.49
18,G2D,2.58
19,G2I,3.05
20,G2Q,2.66
21,G2E,2.72
22,G2S,1.91
23,G2M,2.57
24,G2Y,3.14

row,Variant,protein stability index
1,G2T,4.66
2,G2C,2.8
3,G2N,4.75
4,G2L,1.66
5,G12S,1.91
6,G12A,2.54
7,G12D,2.68
8,G12R,3.98
9,G12I,3.89
10,G12K,2.14
11,G12V,2.04
12,G12C,2.02
13,G12N,2.45
14,G12Q,2.45
15,G12T,3.42
16,W9N,1.9
17,W9C,2.17
18,W9I,3.29
19,W9H,3.06
20,W9M,1.98
21,W9D,2.53
22,W9V,3.47
23,W9S,2.48
24,W9K,3.09

row,Variant,protein stability index
1,W9P,3.09
2,W9R,3.46
3,W9E,2.26
4,W9Q,1.69
5,W9Y,2.97
6,W9A,2.18
7,W9L,3.27
8,D21W,4.17
9,D21S,3.23
10,D21R,3.36
11,D21Y,1.97
12,D21E,3.01
13,D21F,4.18
14,D21P,2.97
15,D21I,2.97
16,D21V,4.01
17,D21N,2.85
18,D21T,3
19,D21M,1.81
20,D21Q,3.26
21,D21C,3.23
22,F4D,2.95
23,F4H,2.83
24,F4P,1.93

row,Variant,protein stability index
1,F4S,3.69
2,F4E,3.75
3,F4I,2.92
4,F4V,1.4
5,F4W,2.2
6,F4Y,4.54
7,F4Q,2.72
8,F4N,3.28
9,F4M,2.76
10,S3I,3.48
11,S3K,2.55
12,S3V,3.33
13,S3H,2.96
14,S3D,4.93
15,S3W,2.82
16,S3Y,2.74
17,S3P,2.19
18,S3T,2.22
19,S3R,2.02
20,S3E,1.34
21,V17M,3.42
22,V17W,3
23,V17A,3.66
24,V17D,2.26

row,Variant,protein stability index
1,V17P,1.66
2,V17R,3.21
3,V17N,2.82
4,V17F,4.21
5,V17T,3.29
6,V17H,3.08
7,V17C,3.27
8,V17L,2.42
9,V17I,1.95
10,V17Y,2.91
11,I14A,3.24
12,I14C,2.81
13,I14T,2.75
14,I14K,2.41
15,I14W,2.62
16,I14Q,2.72
17,I14M,4.33
18,I14N,4.29
19,I14S,1.85
20,I14E,2.66
21,I14P,2.95
22,I14G,2.26
23,I14Y,1.49
